Laboratory results: the supplement of paper PMC9233669
Variants at the floor of the assay were thinned out.

Legend:
biotinyl-Val-oxazolone = assay: self-aminoacylation, catalytic enhancement (BVO) (fold over background); higher = more active; k-Seq, kA / k0A0; sequences stand for … in GGGAAUGGAUCCACAUCUACGAAUUC…UUCACUGCAGACUUGACGAAGCUG
In short: (§1)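 Mutagenized RNA pools with a 21-nt variable region (0.43 μM) reacted with each biotinyl-aminoacyl-oxazolone at 2–1250 μM. Reactions ran in 50 μL HEPES/NaCl/KCl/MgCl2/CaCl2 buffer with 5% acetonitrile, pH 6.9–7.0, for 90 minutes at room temperature. Streptavidin-captured RNA was quantified by triplicate qPCR and Illumina sequencing, and per-sequence fraction reacted was fit to a pseudo-first-order model with 1000 bootstraps. Catalytic enhancement is median kA divided by the uncatalyzed rate, the low-activity peak of a bimodal Gaussian fit.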

biotinyl-Met-oxazolone = assay: self-aminoacylation, catalytic enhancement (BMO) (fold over background); higher = more active; k-Seq, kA / k0A0; sequences stand for … in GGGAAUGGAUCCACAUCUACGAAUUC…UUCACUGCAGACUUGACGAAGCUG
In short: as §1

biotinyl-Phe-oxazolone = assay: self-aminoacylation, catalytic enhancement (BFO) (fold over background); higher = more active; k-Seq, kA / k0A0; sequences stand for … in GGGAAUGGAUCCACAUCUACGAAUUC…UUCACUGCAGACUUGACGAAGCUG
In short: as §1

biotinyl-Ile-oxazolone = assay: self-aminoacylation, catalytic enhancement (BIO) (fold over background); higher = more active; k-Seq, kA / k0A0; sequences stand for … in GGGAAUGGAUCCACAUCUACGAAUUC…UUCACUGCAGACUUGACGAAGCUG
In short: as §1

biotinyl-Leu-oxazolone = assay: self-aminoacylation, catalytic enhancement (BLO) (fold over background); higher = more active; k-Seq, kA / k0A0; sequences stand for … in GGGAAUGGAUCCACAUCUACGAAUUC…UUCACUGCAGACUUGACGAAGCUG
In short: as §1

biotinyl-Trp-oxazolone = assay: self-aminoacylation, catalytic enhancement (BWO) (fold over background); higher = more active; k-Seq, kA / k0A0; sequences stand for … in GGGAAUGGAUCCACAUCUACGAAUUC…UUCACUGCAGACUUGACGAAGCUG
In short: as §1

Sequence | self-aminoacylation (biotinyl-Val-oxazolone) | self-aminoacylation (biotinyl-Met-oxazolone) | self-aminoacylation (biotinyl-Phe-oxazolone) | self-aminoacylation (biotinyl-Ile-oxazolone) | self-aminoacylation (biotinyl-Leu-oxazolone) | self-aminoacylation (biotinyl-Trp-oxazolone)
CGACUUCAAACAAUCAGUCUG [Fam1A.1 aminoacylation ribozyme variant] | 0.893 | 1.01 | 28.2 | 0.938 | 1.27 | 10.2
CGACUUCAAACAAUCGGUAUG [Fam1A.1 aminoacylation ribozyme variant] | 1.28 | 1.16 | 10.8 | 1.09 | 1.3 | 5.6
CGACUUCAAACAAUCGGUCUC [Fam1A.1 aminoacylation ribozyme variant] | 1.35 | 1.59 | 53.8 | 1.52 | 1.99 | 31.1
CGACUUCAAACAAUCGGUCUU [Fam1A.1 aminoacylation ribozyme variant] | 1.71 | 1.26 | 18.2 | 1.64 | 1.77 | 12.7
CGACUUCAAACAAUUGGUCUG [Fam1A.1 aminoacylation ribozyme variant] | 0.891 | 0.91 | 1.57 | 1.06 | 0.999 | 1.25
CUAAUUCAAACAAACGGUCUG [Fam1A.1 aminoacylation ribozyme variant] | 0.917 | 0.616 | 0.687 | 0.823 | 0.561 | 0.543
CUAAUUCAAACAAUCGAUCUG [Fam1A.1 aminoacylation ribozyme variant] | 0.561 | 0.43 | 0.72 | 0.604 | 0.544 | 0.361
CUAAUUCAAACAAUCGGUUUG [Fam1A.1 aminoacylation ribozyme variant] | 0.724 | 0.701 | 3.96 | 0.802 | 0.696 | 2.78
CUACACUUCAAGCAAUCGGGC [Fam1B.1 aminoacylation ribozyme variant] | 1.42 | 1.95 | 0.999 | 1.48 | 1.27 | 2.02
CUACACUUCAAGCAAUGGGUC [Fam1B.1 aminoacylation ribozyme variant] | 0.536 | 0.494 | 0.544 | 0.65 | 0.542 | 0.47
CUACAUCAAAAAAUCGGUCUG [Fam1A.1 aminoacylation ribozyme variant] | 0.745 | 0.712 | 1.35 | 0.831 | 0.633 | 0.753
CUACAUCAAACAAUCGCUCUG [Fam1A.1 aminoacylation ribozyme variant] | 0.878 | 0.777 | 0.457 | 0.803 | 0.89 | 0.67
CUACAUCAAACAAUCGGGCUG [Fam1A.1 aminoacylation ribozyme variant] | 1.3 | 1.44 | 0.764 | 1.36 | 0.965 | 1.29
CUACAUCAAACAAUCGGUCUG [Fam1A.1 aminoacylation ribozyme variant] | 0.82 | 0.759 | 2.27 | 0.799 | 0.736 | 1.41
CUACAUCAAACAAUCGGUCUU [Fam1A.1 aminoacylation ribozyme variant] | 0.748 | 0.791 | 1.45 | 0.69 | 0.615 | 1.25
CUACAUCAAACAAUCUGUCUG [Fam1A.1 aminoacylation ribozyme variant] | 0.736 | 0.533 | 0.795 | 0.722 | 0.624 | 0.497
CUACAUCAAACACUCGGUCUG [Fam1A.1 aminoacylation ribozyme variant] | 1.26 | 1.03 | 3.01 | 1.03 | 0.978 | 1.11
CUACAUCAAAUAAUCGGUCUG [Fam1A.1 aminoacylation ribozyme variant] | 0.864 | 0.804 | 1.42 | 0.801 | 0.717 | 0.824
CUACAUUAAACAAUCGGUCUG [Fam1A.1 aminoacylation ribozyme variant] | 0.819 | 1.14 | 0.647 | 0.992 | 0.898 | 0.75
CUACAUUUCAAGCAAUCGGUC [Fam1B.1 aminoacylation ribozyme variant] | 0.849 | 0.748 | 2.41 | 0.887 | 0.705 | 1.45
CUACCUAAAACAAUCGGUCUG [Fam1A.1 aminoacylation ribozyme variant] | 0.991 | 0.761 | 0.787 | 0.883 | 0.624 | 0.697

Sequence | self-aminoacylation (biotinyl-Val-oxazolone) | self-aminoacylation (biotinyl-Met-oxazolone) | self-aminoacylation (biotinyl-Phe-oxazolone) | self-aminoacylation (biotinyl-Ile-oxazolone) | self-aminoacylation (biotinyl-Leu-oxazolone) | self-aminoacylation (biotinyl-Trp-oxazolone)
CUACCUCAAACAAUCGCUCUG [Fam1A.1 aminoacylation ribozyme variant] | 1.17 | 0.85 | 0.589 | 0.818 | 1.27 | 1.83
CUACCUCAAACACUCGGUCUG [Fam1A.1 aminoacylation ribozyme variant] | 1.6 | 1.08 | 1.74 | 1.22 | 1.31 | 1.93
CUACCUCAAACGAUCGGUCUG [Fam1A.1 aminoacylation ribozyme variant] | 0.761 | 1 | 1.42 | 0.987 | 1.03 | 0.954
CUACCUCAAAUAAUCGGUCUG [Fam1A.1 aminoacylation ribozyme variant] | 0.863 | 1.08 | 1.1 | 1.05 | 1.12 | 1.23
CUACGUAAAACAAUCGGUCUG [Fam1A.1 aminoacylation ribozyme variant] | 0.999 | 0.999 | 1.38 | 1.18 | 0.755 | 0.819
CUACGUCAAACAAACGGUCUG [Fam1A.1 aminoacylation ribozyme variant] | 1.03 | 1.08 | 0.89 | 1.06 | 1.16 | 0.904
CUACGUCACACAAUCGGUCUG [Fam1A.1 aminoacylation ribozyme variant] | 0.962 | 0.943 | 0.794 | 0.999 | 0.98 | 0.986
CUACGUCAGACAAUCGGUCUG [Fam1A.1 aminoacylation ribozyme variant] | 1.42 | 1.86 | 1.67 | 1.61 | 1.28 | 0.99
CUACGUCGAACAAUCGGUCUG [Fam1A.1 aminoacylation ribozyme variant] | 1.93 | 1.91 | 4.04 | 1.7 | 1.83 | 1.3
CUACUACAAACAAUCAGUCUG [Fam1A.1 aminoacylation ribozyme variant] | 0.732 | 0.467 | 0.88 | 0.657 | 0.7 | 0.554
CUACUACAAACAAUCGGACUG [Fam1A.1 aminoacylation ribozyme variant] | 0.769 | 0.695 | 0.703 | 0.852 | 0.582 | 0.469
CUACUACAAACAAUCGGGCUG [Fam1A.1 aminoacylation ribozyme variant] | 1.05 | 0.989 | 0.456 | 1.16 | 1.07 | 0.83
CUACUACAAACCAUCGGUCUG [Fam1A.1 aminoacylation ribozyme variant] | 0.822 | 0.845 | 0.739 | 0.837 | 0.702 | 0.765
CUACUACAUACAAUCGGUCUG [Fam1A.1 aminoacylation ribozyme variant] | 0.782 | 0.901 | 0.703 | 0.812 | 0.641 | 0.58
CUACUCCAAAAAAUCGGUCUG [Fam1A.1 aminoacylation ribozyme variant] | 0.846 | 0.674 | 1.33 | 0.894 | 0.857 | 1.06
CUACUCCAAACAAUCCGUCUG [Fam1A.1 aminoacylation ribozyme variant] | 0.821 | 0.636 | 0.642 | 0.838 | 0.759 | 0.582
CUACUCCAAACAAUCGGGCUG [Fam1A.1 aminoacylation ribozyme variant] | 1.01 | 1.61 | 1.02 | 1.36 | 1.29 | 1.14
CUACUCUUCAAGCAAUCGGUC [Fam1B.1 aminoacylation ribozyme variant] | 0.924 | 0.904 | 25.4 | 0.859 | 1.07 | 11
CUACUGCAAACAAUCCGUCUG [Fam1A.1 aminoacylation ribozyme variant] | 0.801 | 0.806 | 1.27 | 0.953 | 0.817 | 0.876
CUACUGCAAACAAUCGGUCUC [Fam1A.1 aminoacylation ribozyme variant] | 0.885 | 0.916 | 0.785 | 0.855 | 0.716 | 0.681
CUACUGCAAACAAUCGGUCUU [Fam1A.1 aminoacylation ribozyme variant] | 0.836 | 0.963 | 1.06 | 0.974 | 0.953 | 0.857
